Experimental data published in paper PMC5359911.

Experiments:
[1] = target: smooth muscle tropomyosin, purified α/β heterodimer of chicken gizzard Tpm1.4 and Tpm2.1 (chicken); test: SPR; BIAcore X100; Tpm amine-coupled to CM5 chip; SMTNL1-TMB 0.12-10 uM injected; 20 mM HEPES pH 7.5, 100 mM KCl, 1 mM DTT, 0.005% Tween-20; 25 C; n = 3
[2] = target: smooth muscle tropomyosin, purified α/β heterodimer of chicken gizzard Tpm1.4 and Tpm2.1 (chicken); test: pull-down; Tpm covalently bound to CNBr-activated Sepharose (40 uL); 200 ug SMTNL1-TMB; 20 mM Tris-HCl pH 7.5, 0.1% beta-mercaptoethanol, 2 h at 4 C; washed with 150 mM NaCl; Coomassie stain, densitometry
[3] = target: SMTNL1-TMB, Tpm-binding region of smoothelin-like 1 protein (amino acids 195-459), unphosphorylated (UniProt Q99LM3); test: pull-down; competition, apo-CaM: SMTNL1-TMB premixed with Tpm (equimolar or other molar ratios) for 1 h at 4 C, then added to CaM-Sepharose with 1 mM EDTA

| Kd [1] [nM] | fold recovered against unphosphorylated SMTNL1-TMB [2] [fold] | percent reduction of SMTNL1-TMB binding to apo-CaM-Sepharose by equimolar Tpm [3] [%] | Substance |
| --- | --- | --- | --- |
| 320 | 2 | – | SMTNL1-TMB phosphorylated at Ser301 with PKA (from UniProt Q99LM3 195-459) (domain or fragment) |
| – | – | 60 | smooth muscle tropomyosin, purified α/β heterodimer of chicken gizzard Tpm1.4 and Tpm2.1 (complex) |
| 3000 | – | – | SMTNL1-TMB, Tpm-binding region of smoothelin-like 1 protein (amino acids 195-459), unphosphorylated (from UniProt Q99LM3 195-459) (domain or fragment) |
